Measured values published in patent WO2020165374A1 (dated 2020).

Key:
[1] = biological target: T1, human recombinant IL-15 (SinoBiological ref#10360-H07E) (human, UniProt P40933 49-162); assay: ELISA, human IL-15 immobilized, anti-human IgG peroxidase detection
T1 construct: also called Human IL-15; IL-15 cytokine

[2] = biological target: T2, recombinant human PD-1 (Sino Biologicals, reference 10377-H08H) (human, UniProt Q15116 25-167); assay: ELISA, recombinant hPD1 immobilized, anti-human IgG peroxidase detection
T2 construct: Bought protein; also called recombinant hPDl; Human recombinant PD-1
T2 sequence (Q15116 25-167 limits assumed): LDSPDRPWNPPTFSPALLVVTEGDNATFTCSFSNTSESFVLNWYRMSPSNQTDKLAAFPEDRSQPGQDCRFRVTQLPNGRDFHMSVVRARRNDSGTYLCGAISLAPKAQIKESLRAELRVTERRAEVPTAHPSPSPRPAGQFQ

T1 sequence (P40933 49-162 limits assumed, stated change not applied): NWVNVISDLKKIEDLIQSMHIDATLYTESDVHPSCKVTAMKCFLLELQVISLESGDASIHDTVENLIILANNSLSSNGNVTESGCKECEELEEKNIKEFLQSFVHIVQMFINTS

binding result [1]: no binding
binding result [2]: binds
B1: anti-PD-1 antibody (antibody, human IgG4 S228P, kappa, V domains shown)
VH: QIQLVQSGSELKKPGASVKVSCKASGYTFTHYAMNWVRQAPGQGLEWMGWINTNTGEPTYAQGFTGRFVFSLDTSVSTAYLQISSLKAEDTAVYYCAREREPGMDNWGQGTLVTVSS
VL: DVVMTQSPLSLPVTLGQPASISCRSSQSLVHANTNTYLEWYQQRPGQSPRLLIYKVSNRFSGVPDRFSGSGSGTDFTLKISRVEAEDVGVYYCFQGTHVPNTFGQGTKLEIKR
notes: also called Anti-PDl; anti-PD-1 alone
